Reference: patent US20250034264A1, “REGULATING T CELL IMMUNE RESPONSE THROUGH IGF-I RECEPTOR (IGF-1R)” (The Regents of the University of Michigan, priority 2021, published 2025)

Assays:
Assay type in all cases: cell-based, human
[1] = test system: CD34+ fibrocytes; assay: MHC II, CD80, CD86, PD-L1 expression in cultured fibrocytes (RT-qPCR, flow cytometry); settings: rhSlit2 50 ng/ml, 5 to 7 d
Excerpt: Fibrocyte and T cell isolation and cultivation. Peripheral blood mononuclear cells (PBMCs) were obtained from the venous circulation of clinic patients with GD, TAO or from healthy donors after obtaining informed consent. PBMCs were also obtained from Red Cross donor plasmapheresis filters. They were isolated by Ficoll-Histopaque (Sigma-Aldrich, St. Louis, MO) density gradient centrifugation. Fibrocytes were cultivated as described (Bucala, R, et al., (1994) Mol Med 1, 71-81, incorporated herein by reference in its entirety) except that culture substrata remained uncoated with fibronectin, as previously described (Douglas, R. S., et al. (2010) The Journal of clinical endocrinology and metabolism 95, 430-438). Isolated PBMCs (1×10^6-1×107) were inoculated in six-well plates covered with DMEM containing 10% FBS and incubated in 10-14 days. Adherent monolayers (<5% of the starting population) were washed with PBS and detached using accutase (Millipore) treatment, or mechanical scraping following accutase treatment. Culture purity was routinely confirmed by FACS analysis to be >90% fibrocytes by confirming the CD31^−CD45^+CD34^+CXCR4^+Col I^+TSFR^high phenotype.
Invariably, a small population of tightly adherent T cells were found in the fibrocyte cultures, consistent with the previous findings. Culture viability was routinely verified to be >90%. CD4^+ T cells were enriched using the CD4 isolation cocktail (Cat #0.130-096-533, Miltenyi Biotec, San Diego, CA) followed by negative selection using a magnetic column (Cat #0.130-042-401) according to manufacturer's protocol. Fibrocytes and isolated T cells were cultured and remained untreated or were incubated with human IgG isotype control (5 μg/ml) or teprotumumab (50 μg/mL) for 7 to 9 days. Single cell suspensions were stained with anti-human CD4, CD3, CD34, MHC-2, CD80, CD86, and PD-L1 (BD Biosciences) for 30 min, rinsed and fixed with CytoPerm/CytoFix (BD). They were then stained with anti-human INFγ and IL-17A for 20 min, rinsed, and subjected to the flow cytometry analysis. Gated CD34^+CXCR4^+ fibrocytes and CD4^+CD3^+ T cells were analyzed using quadrant settings based on negative isotype staining.
In vitro studies of CD34^+ fibrocytes and T cells PBMC and GD-OF monolayers were treated in vitro with human IgG isotype control (5 μg/ml), teprotumumab (50 μg/mL), H7 (5 μg/mL), linsitinib (1 μM), bTSH (5 mIU/mL), M22 (1 μg/mL), or IGF-1 (10 nM) for the intervals indicted in the figure legends in a 37° C., 5% CO2, humidified incubator until confluent. Brefeldin A (0.66 μl/ml), (Golgi Stop™, BD Biosciences), phorbol 12-myristate 13-acetate (PMA) (50 ng/ml) and ionomycin (1 μg/mL) were added for 5 h. Cells were rinsed with flow cytometry buffer (1×PBS, 0.5% BSA, 0.1% sodium azide) and stained with the relevant monoclonal antibodies.
(§1) Real-time PCR Confluent fibrocyte and GD-OF cultures were incubated with bTSH (5 mIU/mL), teprotumumab (50 μg/mL) or linsitinib (1 μM) for the time intervals indicated, washed with PBS and RNA was extracted with the Aurum Total RNA Mini Kit (cat. #732-6820, Bio-Rad, Hercules, CA). Cellular RNA (2 μg) was reverse transcribed using QuantiTect Reverse Transcription kit (cat. #205314, Qiagen (Germantown, MD) and real-time PCR was performed using an Applied Biosystems instrument with QuantiTect SYBR Green PCR kit (cat. no. 204143; Qiagen, Frederick, MD). Primer sequences were as follows.

[2] = test system: fibrocytes and GD-OF; assay: BAFF expression and induction by bTSH; settings: teprotumumab 50 μg/ml or rhSlit2 50 ng/ml
Procedure: FIGS. 12A-12F are graphs showing the effect of bTSH, teprotumumab, and Slit2 on B-cell activating factor (BAFF) expression in fibrocytes and GD-OF. In FIGS. 12A and 12B, cultures were treated for the graded intervals indicated along the abscissas with bTSH (5 mIU/mL). Cellular RNA was harvested and subjected to reverse transcription by RT-PCR (FIG. 12A). Values were normalized to their respective GAPDH levels Medium was assayed for BAFF levels with an ELISA (FIG. 12B). Values were normalized to respective monolayer protein content. Data are expressed as mean f SD of triplicate determinations; *, p<0.05; **, p<0.01; ***, p<0.001. In FIGS. 12C-12F, bTSH, teprotumumab (50 μg/ml) or recombinant human Slit2 (rhSlit2) (50 ng/ml) were added to culture media for the times indicated and analyzed for BAFF mRNA levels as in FIG. 12A. In FIGS. 12F, parental GD-OF strains were sorted into pure CD34^+ and CD34^− subsets. Subsets were then cultured for 48 h, the final 6 h in the absence or presence of bTSH. Data were expressed as mean f SD of triplicate independent determinations from a single experiment representative of three conducted. *, p<0.05; **, p<0.01
IL-12, IL-23, IL-10, HA and BAFF ELISAs. Confluent cultures were treated with nothing or teprotumumab (50 μg/mL) for 5 d, without or with bTSH (5 mU/mL) for the intervals indicated or 72 h. […]

[3] = test system: fibrocytes; assay: IL-10, icIL-1RA, sIL-1RA expression (PCR, ELISA)
Procedure: FIGS. 11A-11F are graphs showing teprotumumab attenuates bTSH induced IL-10 while enhancing icIL-1RA and sIL-1RA expression in fibrocytes and GD-OF. Fibrocyte cultures were treated with teprotumumab (50 μg/ml), rhSlit2 (50 ng/ml) or human Isotype IgG for 7-9 d, with bTSH (5 mIU/mL) for final 6 h. RNA was extracted and reverse transcribed. Isolated cDNA was subjected to quantitative real-time PCR for IL-10 (FIGS. 11A and 11B), icIL-1RA (FIGS. 11C and 11D). Media and cellular proteins were collected and subjected to specific ELISAs for icIL-1RA and sIL-1RA (FIGS. 11E, 11F, 11G, and 11H). PCR values were normalized to their respective GAPDH levels. icIL-1RA and sIL-1RA protein levels were normalized to cellular protein levels. Data are expressed as the mean±SD of three independent determinations. Experiments were repeated three times. **, p<0.01; ***. P<0.001.
IL-12, IL-23, IL-10, HA and BAFF ELISAs. Confluent cultures were treated with nothing or teprotumumab (50 μg/mL) for 5 d, without or with bTSH (5 mU/mL) for the intervals indicated or 72 h. Media and rinsed cell layers were homogenized in 0.1M NaCl and assayed for HA content using an ELISA kit (K-1200) from Echelon Biosciences Inc. (Salt Lake City, UT) according to manufacturer's instructions. A BAFF specific ELISA, purchased from R & D systems, was used in accordance with the manufacturer's instructions.
as §1

[4] = teprotumumab 50 μg/ml or rhSlit2 50 ng/ml, 7-9 d

B1: rhSlit2: recombinant human Slit2, a neural axon repellent generated by CD34− OF (protein, UniProt O94813 31-1529, looked up)
Slit homolog 2 protein: QCSCSGSTVDCHGLALRSVPRNIPRNTERLDLNGNNITRITKTDFAGLRHLRVLQLMENKISTIERGAFQDLKELERLRLNRNHLQLFPELLFLGTAKLYRLDLSENQIQAIPRKAFRGAVDIKNLQLDYNQISCIEDGAFRALRDLEVLTLNNNNITRLSVASFNHMPKLRTFRLHSNNLYCDCHLAWLSDWLRQRPRVGLYTQCMGPSHLRGHNVAEVQKREFVCSGHQSFMAPSCSVLHCPAACTCSNNIVDCRGKGLTEIPTNLPETITEIRLEQNTIKVIPPGAFSPYKKLRRIDLSNNQISELAPDAFQGLRSLNSLVLYGNKITELPKSLFEGLFSLQLLLLNANKINCLRVDAFQDLHNLNLLSLYDNKLQTIAKGTFSPLRAIQTMHLAQNPFICDCHLKWLADYLHTNPIETSGARCTSPRRLANKRIGQIKSKKFRCSAKEQYFIPGTEDYRSKLSGDCFADLACPEKCRCEGTTVDCSNQKLNKIPEHIPQYTAELRLNNNEFTVLEATGIFKKLPQLRKINFSNNKITDIEEGAFEGASGVNEILLTSNRLENVQHKMFKGLESLKTLMLRSNRITCVGNDSFIGLSSVRLLSLYDNQITTVAPGAFDTLHSLSTLNLLANPFNCNCYLAWLGEWLRKKRIVTGNPRCQKPYFLKEIPIQDVAIQDFTCDDGNDDNSCSPLSRCPTECTCLDTVVRCSNKGLKVLPKGIPRDVTELYLDGNQFTLVPKELSNYKHLTLIDLSNNRISTLSNQSFSNMTQLLTLILSYNRLRCIPPRTFDGLKSLRLLSLHGNDISVVPEGAFNDLSALSHLAIGANPLYCDCNMQWLSDWVKSEYKEPGIARCAGPGEMADKLLLTTPSKKFTCQGPVDVNILAKCNPCLSNPCKNDGTCNSDPVDFYRCTCPYGFKGQDCDVPIHACISNPCKHGGTCHLKEGEEDGFWCICADGFEGENCEVNVDDCEDNDCENNSTCVDGINNYTCLCPPEYTGELCEEKLDFCAQDLNPCQHDSKCILTPKGFKCDCTPGYVGEHCDIDFDDCQDNKCKNGAHCTDAVNGYTCICPEGYSGLFCEFSPPMVLPRTSPCDNFDCQNGAQCIVRINEPICQCLPGYQGEKCEKLVSVNFINKESYLQIPSAKVRPQTNITLQIATDEDSGILLYKGDKDHIAVELYRGRVRASYDTGSHPASAIYSVETINDGNFHIVELLALDQSLSLSVDGGNPKIITNLSKQSTLNFDSPLYVGGMPGKSNVASLRQAPGQNGTSFHGCIRNLYINSELQDFQKVPMQTGILPGCEPCHKKVCAHGTCQPSSQAGFTCECQEGWMGPLCDQRTNDPCLGNKCVHGTCLPINAFSYSCKCLEGHGGVLCDEEEDLFNPCQAIKCKHGKCRLSGLGQPYCECSSGYTGDSCDREISCRGERIRDYYQKQQGYAACQTTKKVSRLECRGGCAGGQCCGPLRSKRRKYSFECTDGSSFVDEVEKVVKCGCTRCVS
[1]
  MHC II and B7 expression: repressing
[2]
  bTSH induction of BAFF: similar
[3]; ELISA, fibrocytes
  sIL-1RA expression (protein): attenuated
[3]; [4]
  IL-10 mRNA, basal and bTSH-provoked expression: downregulated
  basal and bTSH-dependent icIL-1RA and sIL-1RA mRNA levels: upregulated
